Molecular target: M6P receptor on the surface of human MPS IIIB skin fibroblasts (human)
Experiment: cell-based or functional assay

B1: recombinant human N-acetyl-alpha-D-glucosaminidase (rhNaGlu) produced in transgenic avian (Gallus) egg white (enzyme)
chain: DEAREAAAVRALVARLLGPGPAADFSVSVERALAAKPGLDTYSLGGGGAARVRVRGSTGVAAAAGLHRYLRDFCGCHVAWSGSQLRLPRPLPAVPGELTEATPNRYRYYQNVCTQSYSFVWWDWARWEREIDWMALNGINLALAWSGQEAIWQRVYLALGLTQAEINEFFTGPAFLAWGRMGNLHTWDGPLPPSWHIKQLYLQHRVLDQMRSFGMTPVLPAFAGHVPEAVTRVFPQVNVTKMGSWGHFNCSYSCSFLLAPEDPIFPIIGSLFLRELIKEFGTDHIYGADTFNEMQPPSSEPSYLAAATTAVYEAMTAVDTEAVWLLQGWLFQHQPQFWGPAQIRAVLGAVPRGRLLVLDLFAESQPVYTRTASFQGQPFIWCMLHNFGGNHGLFGALEAVNGGPEAARLFPNSTMVGTGMAPEGISQNEVVYSLMAELGWRKDPVPDLAAWVTSFAARRYGVSHPDAGAAWRLLLRSVYNCSGEACRGHNRSPLVRRPSLQMNTSIWYNRSDVFEAWRLLLTSAPSLATSPAFRYDLLDLTRQAVQELVSLYYEEARSAYLSKELASLLRAGGVLAYELLPALDEVLASDSRFLLGSWLEQARAAAVSEAEADFYEQNSRYQLTLWGPEGNILDYANKQLAGLVANYYTPRWRLFLEALVDSVAQGIPFQQHQFDKNVFQLEQAFVLSKQRYPSQPRGDTVDLAKKIFLKYYPRWVAGSW
modifications: N-linked glycans carrying mannose-6-phosphate (3.2 moles of M6P per mole of protein), mannose and GlcNAc; sites not stated
  NaGlu enzymatic activity in human MPS IIIB fibroblasts after 24 h with 0.3 ug/mL rhNaGlu (cellular uptake): ~50 % of wild-type fibroblast activity
  NaGlu enzymatic activity in human MPS IIIB fibroblasts after 24 h with 1 ug/mL rhNaGlu (cellular uptake): ~4 fold of wild-type fibroblast activity
  NaGlu enzymatic activity in human MPS IIIB fibroblasts after 24 h with 30 ug/mL rhNaGlu (cellular uptake): ≥ 40 fold of wild-type fibroblast activity
